Data on four molecules can be found in patent publication US20120178796A1 (published 2012).

B1: Flag-tagged AROS (other, UniProt Q86WX3 1-136, looked up, not shown: small tags and cut ends)
chain: MSAALLRRGLELLAASEAPRDPPGQAKPRGAPVKRPRKTKAIQAQKLRNSAKGKVPKSALDEYRKRECRDHLRVNLKFLTRTRSTVAESVSQQILRQNRGRKACDRPVAKTKKKKAEGTVFTEEDFQKFQQEYFGS
notes: its order in the chain is arbitrary
B2: Myc-His-SIRT1 Δ2-9 (MH-SIRT1 Δ2-9) (other, not shown: small tags and cut ends)
chain: MADEAALALQPGGSPSAAGADREAASSPAGEPLRKRPRRDGPGLERSPGEPGGAAPEREVPAAARGCPGAAAAALWREAEAEAAAAGGEQEAQATAAAGEGDNGPGLQGPSREPPLADNLYDEDDDDEGEEEEEAAAAAIGYRDNLLFVLVAVTVIVGHARVQV
notes: Expressed in HCT116 p53+/+ cells from pcDNA3.1; Serine 47 found phosphorylated; also called exogenous SIRT1 Δ2-9
B3: SIRT1-FL (endogenous full length SIRT1) (enzyme, human, UniProt Q96EB6 1-747, looked up)
chain: MADEAALALQPGGSPSAAGADREAASSPAGEPLRKRPRRDGPGLERSPGEPGGAAPEREVPAAARGCPGAAAAALWREAEAEAAAAGGEQEAQATAAAGEGDNGPGLQGPSREPPLADNLYDEDDDDEGEEEEEAAAAAIGYRDNLLFGDEIITNGFHSCESDEEDRASHASSSDWTPRPRIGPYTFVQQHLMIGTDPRTILKDLLPETIPPPELDDMTLWQIVINILSEPPKRKKRKDINTIEDAVKLLQECKKIIVLTGAGVSVSCGIPDFRSRDGIYARLAVDFPDLPDPQAMFDIEYFRKDPRPFFKFAKEIYPGQFQPSLCHKFIALSDKEGKLLRNYTQNIDTLEQVAGIQRIIQCHGSFATASCLICKYKVDCEAVRGDIFNQVVPRCPRCPADEPLAIMKPEIVFFGENLPEQFHRAMKYDKDEVDLLIVIGSSLKVRPVALIPSSIPHEVPQILINREPLPHLHFDVELLGDCDVIINELCHRLGGEYAKLCCNPVKLSEITEKPPRTQKELAYLSELPPTPLHVSEDSSSPERTSPPDSSVIVTLLDQAAKSNDDLDVSESKGCMEEKPQEVQTSRNVESIAEQMENPDLKNVGSSTGEKNERTSVAGTVRKCWPNRVAKEQISRRLDGNQYLFLPPNRYIFHGAEVYSDSEDDVLSSSSCGSNSDSGTCQSPSLEEPMEDESEIEEFYNGLEDEPDVPERAGGAGFGTDGDDQEAINEAISVKQEVTDMNYPSNKS
B4: Myc-tagged SIRT1-ΔExon8 (SIRT1 Δ8 tagged at the C-terminus with c-Myc and 6x His) (enzyme)
chain: ADEAALALQPGGSPSAAGADREAASSPAGEPLRKRPRRDGPGLERSPGEPGGAAPEREVPAAARGCPGAAAAALWREAEAEAAAAGGEQEAQATAAAGEGDNGPGLQGPSREPPLADNLYDEDDDDEGEEEEEAAAAAIGYRDNLLFGDEIITNGFHSCESDEEDRASHASSSDWTPRPRIGPYTFVQQHLMIGTDPRTILKDLLPETIPPPELDDMTLWQIVINILSEPPKRKKRKDINTIEDAVKLLQECKKIIVLTGAGVSVSCGIPDFRSRDGIYARLAVDFPDLPDPQAMFDIEYFRKDPRPFFKFAKEIYPGQFQPSLCHKFIALSDKEGKLLRNYTQNIDTLEQVAGIQRIIQCHGSFATASCLICKYKVDCEAVRGDIFNQVVPRCPRCPADEPLAIMKPEIVFFGENLPEQFHRAMKYDKDEVDLLIVIGSSLKVRPVALIPSNQYLFLPPNRYIFHGAEVYSDSEDDVLSSSSCGSNSDSGTCQSPSLEEPMEDESEIEEFYNGLEDEPDVPERAGGAGFGTDGDDQEAINEAISVKQEVTDMNYPSNKS
notes: Transiently expressed in HCT116 cells, about 95 kDa; Found phosphorylated at S27 and S47 in lysates; also called SIRT1-delta exon 8; SIRT1 D8; not shown: C-terminal c-Myc and 6x His tags

The target of test [1] is B4. Briefly: pull-down / co-immunoprecipitation from HCT116 cells. As for the experimental part:
(§1) SIRT1-ΔExon8 was exogenously expressed in HCT116 cells and immuno-precipitated. […] SIRT1-ΔExon8 and Flag-tagged AROS were exogenously expressed in HCT116 cells, and the Flag epitope was immuno-precipitated. In the eluate, AROS was detected by probing with an anti-AROS antibody (Methods), while the interaction with SIRT1-ΔExon8 was probed with anti-c-Myc antibody (9E10, Santa Cruz). C. […] SIRT1-ΔExon8 was exogenously expressed in HCT116 cells and cells were harvested 24 h post-transfection. Cell lysates were immuno-precipitated with anti-c-Myc antibody (9E10, Santa Cruz). Western-blotting was performed with a C-terminal anti-SIRT1 antibody (residues 448-747, H300, Santa Cruz) which detects both endogenous SIRT1-FL and SIRT1-ΔExon8 (see: FIG. 2a). * indicates a non-specific band;

Test [2] deals with T1, p53 (endogenous, HCT116 p53+/+ cells) (human, UniProt P04637 1-393).
T1 construct: Endogenous protein in cell lysate, detected with anti-p53 DO-1; also called tumour suppressor protein p53; endogenous p53
In words: immunoprecipitation of exogenous SIRT1 Δ2-9 with His antibody, blotted with p53 antibody.

Test [3] concerns the target T1, p53 (endogenous, HCT116 p53+/+ cells). In words: cell-based or functional assay.
The target of test [4] is T2, DBC-1 (endogenous, HCT116 cells) (human, UniProt Q8N163 1-923).
T2 construct: Endogenous protein in cell lysate, probed with anti-DBC-1; also called endogenous DBC-1
In words: immunoprecipitation of exogenous SIRT1-ΔExon8 from HCT116 cells, eluate probed with anti-DBC-1. The procedure: as §1

The target in test [5] is B3. Briefly: immunoprecipitation with anti-c-Myc 9E10 from HCT116 lysates, Western blot with H300 anti-SIRT1. The procedure:
as §1

T1 sequence (P04637 whole entry): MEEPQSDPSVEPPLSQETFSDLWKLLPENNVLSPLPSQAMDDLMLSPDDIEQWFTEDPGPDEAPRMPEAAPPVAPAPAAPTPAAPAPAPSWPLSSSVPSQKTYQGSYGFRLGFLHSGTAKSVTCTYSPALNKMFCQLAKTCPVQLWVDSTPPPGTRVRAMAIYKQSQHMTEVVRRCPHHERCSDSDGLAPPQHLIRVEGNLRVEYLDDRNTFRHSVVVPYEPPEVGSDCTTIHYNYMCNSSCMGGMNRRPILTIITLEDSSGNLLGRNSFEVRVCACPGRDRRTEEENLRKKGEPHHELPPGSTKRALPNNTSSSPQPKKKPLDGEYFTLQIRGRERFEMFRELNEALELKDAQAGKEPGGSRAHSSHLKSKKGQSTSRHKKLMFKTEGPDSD
T2 sequence (Q8N163 whole entry): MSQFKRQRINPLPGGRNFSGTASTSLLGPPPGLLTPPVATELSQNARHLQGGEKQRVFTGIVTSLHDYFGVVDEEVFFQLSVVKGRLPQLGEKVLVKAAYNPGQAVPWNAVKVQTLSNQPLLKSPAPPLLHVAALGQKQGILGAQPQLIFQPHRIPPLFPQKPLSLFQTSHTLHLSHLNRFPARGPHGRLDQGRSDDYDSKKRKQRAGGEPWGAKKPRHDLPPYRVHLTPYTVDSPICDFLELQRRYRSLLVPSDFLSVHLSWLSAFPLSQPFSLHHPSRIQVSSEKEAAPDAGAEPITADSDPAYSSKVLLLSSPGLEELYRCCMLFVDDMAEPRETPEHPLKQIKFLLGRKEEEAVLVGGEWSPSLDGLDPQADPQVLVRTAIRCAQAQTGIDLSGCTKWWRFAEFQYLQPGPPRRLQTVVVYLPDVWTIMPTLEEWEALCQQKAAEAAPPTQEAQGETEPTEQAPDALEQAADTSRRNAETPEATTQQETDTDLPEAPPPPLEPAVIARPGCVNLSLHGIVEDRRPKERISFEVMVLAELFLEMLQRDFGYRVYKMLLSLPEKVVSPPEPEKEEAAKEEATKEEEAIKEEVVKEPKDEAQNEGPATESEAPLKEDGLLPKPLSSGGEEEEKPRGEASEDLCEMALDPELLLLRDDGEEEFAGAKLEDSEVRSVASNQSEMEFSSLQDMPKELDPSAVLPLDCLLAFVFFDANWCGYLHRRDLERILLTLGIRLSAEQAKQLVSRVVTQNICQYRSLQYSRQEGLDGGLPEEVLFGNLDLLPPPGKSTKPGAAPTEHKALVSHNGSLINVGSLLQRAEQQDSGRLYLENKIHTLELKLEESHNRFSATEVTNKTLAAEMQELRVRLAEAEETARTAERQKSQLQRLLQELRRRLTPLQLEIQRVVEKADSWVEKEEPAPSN

Turning to B1, the binding result in test [1] is listed as “binds”. Consider B2, for which the binding result in test [2] was “binds”. As for B3, the “p53 acetylation levels following SIRT1 FL depletion (siRNA) under basal conditions in HCT116 cells, immunoblot” value in test [3] is over 50 fold.

With B4, the binding result in test [4] and in test [5] was “no binding” throughout.
